Measurements reported in publication PMC8161422.
One block for each substance: values may come before it.

Columns and labels:
His50 = His50 (UniProt position 50, KEGVVHGVATV); assay: NMR; details: No added salt is implied by the Table 1 footnote 'in absence of salt'. Ionic strength is otherwise not stated.; 20 mM sodium phosphate buffer, pH 7 (as described in this article); protein 250 µM; free monomer, intrinsically disordered, no fibrils; cited from earlier work
[1] = molecular target: alpha-synuclein, wild type (UniProt P37840); assay: NMR pH titration (quoted from Croke et al. 2011, ref 30); Asp and Glu values averaged by the present authors; details: in absence of salt (Table 1 footnote d), not stated for the Asp/Glu values ('in buffer'); cited from earlier work
[2] = molecular target: alpha-synuclein, wild type (UniProt P37840); assay: pH electrode (Orion Star A211 meter, Orion ROSS combination micro electrode) before and after fibril formation; closed-system proton balance; details: fibril formation at 37 °C, temperature of the pH reading not stated, no added salt (pure water; protein and its counter-ions only), none (Milli-Q water; the protein is the only buffer)
[3] = molecular target: alpha-synuclein, wild type (UniProt P37840); assay: NMR pH titration (quoted from Croke et al. 2011, ref 30); details: 20 mM sodium phosphate buffer, pH 7 (so in the source); cited from earlier work
[4] = molecular target: alpha-synuclein 5Q mutant E114Q;E123Q;E126Q;E137Q;E139Q (UniProt P37840); assay: pH electrode (Orion Star A211 meter, Orion ROSS combination micro electrode) before and after fibril formation; closed-system proton balance; details: fibril formation at 37 °C, temperature of the pH reading not stated, no added salt (pure water; protein and its counter-ions only), none (Milli-Q water; the protein is the only buffer)

Substance: alpha-synuclein (Homo sapiens)
pKa (His50): 6.78

protons taken up per monomer during fibril formation ([2]; pH 5.6-6.5): about 2 protons per monomer | apparent pKa(ave) of acidic groups in fibrils, average over all acidic groups (Asp, Glu and the C-terminus) of alpha-synuclein ([2]; pH 6.5): 5.4 pH units
Substance: alpha-synuclein, wild type
pKa in C-terminal tail of α-synuclein (Asp), average of Asp residues in the C-terminal tail of monomeric alpha-synuclein [1]: 4.2 pH units | pKa in C-terminal tail of α-synuclein (Glu), average of Glu residues in the C-terminal tail of monomeric alpha-synuclein [1]: 4.6 pH units | pKa in N-terminal and NAC region of α-synuclein (Asp), average of Asp residues in the N-terminal and NAC regions (first 100 residues) of monomeric alpha-synuclein [1]: 3.6 pH units | pKa in N-terminal and NAC region of α-synuclein (Glu), average of Glu residues in the N-terminal and NAC regions (first 100 residues) of monomeric alpha-synuclein [1]: 4.2 pH units | pKa in full length α-synuclein monomer (Asp), average of all Asp residues of monomeric alpha-synuclein [1]: 4 pH units | pKa in full length α-synuclein monomer (Glu), average of all Glu residues of monomeric alpha-synuclein [1]: 4.4 pH units | change of sample pH on fibril formation ([2]; pH 5.6-6.5): pH increases by 0.9 units, from pH 5.6 (monomer) to pH 6.5 (fibrils), 20 uM in water | pKa, His50 of alpha-synuclein (monomer) [3]: 6.78 pH units

apparent pKa(ave) of acidic groups in fibrils, average over the remaining acidic groups (five fewer than wild type) of the 5Q mutant ([4]; pH 6.6): 4.7 pH units
Substance: alpha-synuclein 5Q mutant E114Q;E123Q;E126Q;E137Q;E139Q
change of sample pH on fibril formation ([4]; pH 6.4-6.6): pH increases by only 0.2 units, from pH 6.4 (monomer) to pH 6.6 (fibrils), 20 uM in water
